Patent publication US20250290037

Molecular target: 488-labeled fibrillized-Aβ (1-42) (Anaspec), P05067
Sequence (P05067 whole entry, looked up, tested part not stated): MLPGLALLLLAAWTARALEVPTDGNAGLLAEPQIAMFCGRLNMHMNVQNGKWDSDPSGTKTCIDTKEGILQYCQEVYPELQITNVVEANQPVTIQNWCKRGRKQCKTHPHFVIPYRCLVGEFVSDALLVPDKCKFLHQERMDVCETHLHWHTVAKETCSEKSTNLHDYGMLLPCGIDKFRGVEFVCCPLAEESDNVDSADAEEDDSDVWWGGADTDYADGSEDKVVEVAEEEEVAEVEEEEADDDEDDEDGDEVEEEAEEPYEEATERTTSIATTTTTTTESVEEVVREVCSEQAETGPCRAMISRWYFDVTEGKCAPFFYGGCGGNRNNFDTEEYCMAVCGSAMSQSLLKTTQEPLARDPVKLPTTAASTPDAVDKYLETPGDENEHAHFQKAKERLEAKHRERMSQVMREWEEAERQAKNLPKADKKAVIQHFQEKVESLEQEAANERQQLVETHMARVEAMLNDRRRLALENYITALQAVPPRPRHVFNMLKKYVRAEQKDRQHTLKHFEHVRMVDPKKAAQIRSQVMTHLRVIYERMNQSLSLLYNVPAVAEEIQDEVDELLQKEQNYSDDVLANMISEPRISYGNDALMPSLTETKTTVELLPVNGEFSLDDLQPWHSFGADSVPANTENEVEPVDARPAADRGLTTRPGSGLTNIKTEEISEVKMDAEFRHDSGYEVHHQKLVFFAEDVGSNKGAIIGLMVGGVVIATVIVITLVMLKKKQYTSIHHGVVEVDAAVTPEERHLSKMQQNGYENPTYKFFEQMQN

Protein | Aβ phagocytosis over time (slope of internalized fluorescent Aβ signal)
secreted Neprilysin (lacks transmembrane and cytoplasmic domains; secretion signal at N-terminus) (protein) YDDGICKSSDCIKSAARLIQNMDATTEPCTDFFKYACGGWLKRNVIPETSSRYGNFDILRDELEVVLKDVLQEPKTEDIVAVQKAKALYRSCINESAIDSRGGEPLLKLLPDIYGWPVATENWEQKYGASWTAEKAIAQLNSKYGKKVLINLFVGTDDKNSVNHVIHIDQPRLGLPSRDYYECTGIYKEACTAYVDFMISVARLIRQEERLPIDENQLALEMNKVMELEKEIANATAKPEDRNDPMLLYNKMTLAQIQNNFSLEINGKPFSWLNFTNEIMSTVNISITNEEDVVVYAPEYLTKLKPILTKYSARDLQNLMSWRFIMDLVSSLSRTYKESRNAFRKALYGTTSETATWRRCANYVNGNMENAVGRLYVEAAFAGESKHVVEDLIAQIREVFIQTLDDLTWMDAETKKRAEEKALAIKERIGYPDDIVSNDNKLNNEYLELNYKEDEYFENIIQNLKFSQSKQLKKLREKVDKDEWISGAAVVNAFYSSGRNQIVFPAGILQPPFFSAQQSNSLNYGGIGMVIGHEITHGFDDNGRNFNKDGDLVDWWTQQSASNFKEQSQCMVYQYGNFSWDLAGGQHLNGINTLGENIADNGGLGQAYRAYQNYIKKNGEEKLLPGLDLNHKQLFFLNFAQVWCGTYRPEYAVNSIKTDVHSPGNFRIIGTLQNSAEFSEAFHCRKNSYMNPEKKCRVW | Decreasing slope over time, as observed in sNEP and NEP data, indicates increasing degradation of Aβ following internalization
membrane-bound Neprilysin (full-length Neprilysin; includes transmembrane and cytoplasmic domains) (protein) GKSESQMDITDINTPKPKKKQRWTPLEISLSVLVLLLTIIAVTMIALYATYDDGICKSSDCIKSAARLIQNMDATTEPCTDFFKYACGGWLKRNVIPETSSRYGNFDILRDELEVVLKDVLQEPKTEDIVAVQKAKALYRSCINESAIDSRGGEPLLKLLPDIYGWPVATENWEQKYGASWTAEKAIAQLNSKYGKKVLINLFVGTDDKNSVNHVIHIDQPRLGLPSRDYYECTGIYKEACTAYVDFMISVARLIRQEERLPIDENQLALEMNKVMELEKEIANATAKPEDRNDPMLLYNKMTLAQIQNNFSLEINGKPFSWLNFTNEIMSTVNISITNEEDVVVYAPEYLTKLKPILTKYSARDLQNLMSWRFIMDLVSSLSRTYKESRNAFRKALYGTTSETATWRRCANYVNGNMENAVGRLYVEAAFAGESKHVVEDLIAQIREVFIQTLDDLTWMDAETKKRAEEKALAIKERIGYPDDIVSNDNKLNNEYLELNYKEDEYFENIIQNLKFSQSKQLKKLREKVDKDEWISGAAVVNAFYSSGRNQIVFPAGILQPPFFSAQQSNSLNYGGIGMVIGHEITHGFDDNGRNFNKDGDLVDWWTQQSASNFKEQSQCMVYQYGNFSWDLAGGQHLNGINTLGENIADNGGLGQAYRAYQNYIKKNGEEKLLPGLDLNHKQLFFLNFAQVWCGTYRPEYAVNSIKTDVHSPGNFRIIGTLQNSAEFSEAFHCRKNSYMNPEKKCRVW | Decreasing slope over time, as observed in sNEP and NEP data, indicates increasing degradation of Aβ following internalization
